This series is described as follows: label from the status in PepcDB records.
“MPSPVEADAKVTMRLRYTKTGAMRYLSHLEMIGLFTRAVGRARLPIRFSQGFHPHPKFSFATALSVGVESWAEYLDMELIPSLTPGEVRDRLNAALPEGMRIVEAVVIPPGTPSLSVLMDKVRYRIILLEEAARDLAARAEAFLARDSFPLRRAKKGRIQEYDLEHHHHHH”: the protein production entry is given as “failed”. Consider “IPLKSIEVPFEGELLPGYAIISEDKAQDTLIVVGGGDTSREDLFYMLGYSGWEHDYNVLMVDLPGQGKNPNQGLHFEVDARAAISAILDWYQAPTEKIAIAGFSGGGYFTAQAVEKDKRIKAWIASTPIYDVAEVFRISFSTALKAPKTILKWGSKLVTSVNKVAEVNLNKYAWQFGQVDFITSVNEVLEQAQIVDYNKIDVPSLFLVGAGEDSELMRQSQVLYDNFKQRGIDVTLRKFSSESGADAHCQVNNFRLMHYQVFEWLNHIFKKKD”, for which the protein production result is “failed”.

With “MALMSDKFLSIVIPAYNSEKYIEKNLMFLSRQTSNNFEVIVVDDGSTDNTCEVSEACLENFKINHRVIRCEENRGQSVARNIGINYSRGKYILFLDSDDFAENNLVQILERNMFNEPDIVFFDYKRIKEGDSVNVNIAQNFEFGKIKSGEEVFNAYKDNKIRLWTGSLVYNKEFLNKNKLRFLEGAHGAEDLNFIFKALLSSKKVRGIEDSLVFYCQRGDSLTNNPDIYKNITVVESMEDVAKFIDENKLDKKLKEAIEKEFTCEHIMYQILGYLNSETKKDTLSVLKNKNVKKYLKKATIKTNRYGRSMYTYMKMAAYFPNLFIKTYLKNTGKLEHHHHHH”, the protein production result is “not failed”. With “VWEFYMPTDVFFGEKILEKRGNIIDLLGKRALVVTGKSSSKKNGSLDDLKKLLDETEISYEIFDEVEENPSFDNVMKAVERYRNDSFDFVVGLGGGSPMDFAKAVAVLLKEKDLSVEDLYDREKVKHWLPVVEIPTTAGTGSEVTPYSILTDPEGNKRGCTLMFPVYAFLDPRYTYSMSDELTLSTGVDALSHAVEGYLSRKSTPPSDALAIEAMKIIHRNLPKAIEGNREARKKMFVASCLAGMVIAQTGTTLAHALGYPLTTEKGIKHGKATGMVLPFVMEVMKEEIPEKVDTVNHIFGGSLLKFLKELGLYEKVAVSSEELEKWVEKGSRAKHLKNTPGTFTPEKIRNIYREALGV”, the protein production result is “not failed”. Regarding “MAKGDQYQAHTEKYHDKKSKKSYKPVWIIISFIILITILLLPTPAGLPVMAKAALAILAFAVVMWVTEAVTYPVSATLILGLMILLLGLSPVQDLSEKLGNPKSGDIILKGSDILGTNNALSHAFSGFSTSAVALVAAALFLAVAMQETNLHKRLALLVLSIVGNKTRNIVIGAILVSIVLAFFVPSATARAGAVVPILLGMIAAFNVSKDSRLASLLIITAVQAVSIWNIGIKTAAAQNIVAINFINQNLGHDVSWGEWFLYAAPWSIIMSIALYFIMIKFMPPEHDAIEGGKELIKKELNKLGPVSHREWRLIVISVLLLFFWSTEKVLHPIDSASITLVALGIILMPKIGVITWKGVEKKIPWGTIIVFGVGISLGNVLLKTGAAQWLSDQTFGLMGLKHLPIIATIALITLFNILIHLGFASATSLASALIPVFISLTSTLNLGDHAIGFVLIQQFVISFGFLLPVSAPQNMLAYGTGTFTVKDFLKTGIPLTIVGYILVIVFSLTYWKWLGLV”, the protein production result is “failed”. Regarding “KKGRFRERYSTRILDALPDMLTVFDHNANIVELASSPTTNHVEGTTSDSIINSNVKDIVPEEAYESVRHNMDKVIHTGKSSTAEHSLMLDGVLHHYENRIFPLDDQYLLCMCRDVS”, the protein production entry is “failed”. For “MNAVTEGRKVLLEIADLKVHFEIKDGKQWFWQPPKTLKAVDGVTLRLYEGETLGVVGESGCGKSTFARAIIGLVKATDGHVAWLGKELLGMKPDEWRAVRSDIQMIFQDPLASLNPRMTIGEIIAEPLRTYHPKMSRQEVRERVKAMMLKVGLLPNLINRYPHEFSGGQCQRIGIARALILEPKLIICDEPVSALDVSIQAQVVNLLQQLQREMGLSLIFIAHDLAVVKHISDRVLVMYLGHAVELGTYDEVYHNPLHPYTRALMSAVPIPDPDLEKNKTIQLLEGELPSPINPPSGCVFRTRCPIAGPECAKTRPVLEGSFRHAVSCLKVDPL”, the protein production entry is listed as “failed”.

For “MLLTREYIDKAFWQKLIAIGLPVSLQSMLFALLGVVDIFMVSLLGESATAAVGVGNRIFFFNLAVVFGLCGAVTVLASQYYGSGNMAGIRRTLAQSWCISILVTLPFIVLYAIFDEEIVSFMSDDPEYVTYARDYLVVTGFSLIATAIVVPIEAVLRSVGQTKLATNVSISAIVVNAVLNSVLIFGLFGFPQWGVFGAAVGTFVSRFFQTAVLIYFFYNRYAHLIPTKFDWAQGRLKQYRQKYFKVSLPMLVHDALWTGGLIVYSIIYGQLGVSELAIISFLSPIEGVLISTFMGFAVAASVLLGNDIGAKHYDRVEKTAWWYVLTSAILATLLFFLVWLSSPLIHHLLVLSPLTDAEMALNVCLVMALGMILRVFNMVGIGGVLKSGADIRYSIFIDTFGQWAIGIPLTYYTGMVLGLPLHFVLMSLLAEEFVKGVLTTYRIQSKRWINNMVEDDQTVTA”, the protein production result was “failed”.

For “MKPQLSWKVGGQQGEGIESTGEIFATAMNRKGYYLYGYRHFSSRIKGGHTNNKIRVSTTPVHAISDDLDILIAFDQETIDVNHHEMREDSIILADAKAKPVKPEGCHAQLIELPFTATAKELGTALMKNMVAIGATSALMNLNTNTFEELITNMFSKKGDKVVEVNIQALNEGYQLMQSRLPEIDGDFELESTDALPHLYMIGNDAIGLGAIAAGSQFMAAYPITPASEVMEYMIANISKVNGAVIQTEDEIAAVTMAIGANYGGVRAFTASAGPGLSLMMEAIGLSGMTETPLVIINTQRGGPSTGLPTKQEQSDLMQMIYGTHGDIPKIVVAPTDAEDAFYLTMEAFNLAEQYQCPVIVLSDLQLSLGKQTVEKLDYNRIEIKRGEIIQSDIEREEDDKGYFKRYALTSNGVSPRPIPGVKGGIHHITGVEHNEEGKPSESASNRQQQMEKRMRKIEQLLIESPVEANLQHEDADILYIGFISTKGAIQEGSNRLNQQGIKVNTIQIRQLHPFPTSVIQDAVNKAKKVVVVEHNYQGQLASIIKMNVNIHDKIENYTKYDGTPFLPHEIEEKGKIIATEIKEMV”, the protein production entry is listed as “not failed”.

With “MTMQDILYYIHTYGLIVLFLIVVGEYCVPAMPTGIVMPAAGIIAGQAHKGIIKVMLISLIAGLVGSIILYLLGYFVGSTLLEKIKIKHPKIEDKLEKTEKILEKHSFLGIFICRLIPIIRTYVSLICGTVKVNFFKFIIFSIPGIFCWNFTGIVVGYFFGGKIRF”, the protein production entry is “failed”. Next, “MLNDILTGYGIFILEILTILLLILAVVGLIISYRQHNKSKVGELEIKDLSEEFNEQVRLLRDFNLSEEEQKQRTKAEKKAEKQNAKKRKEKLKKGETLEDEKKACVYVLDFCGDISASETTALREEISAILNVAKSEDEVLLRLESPGGIVHNYGFAASQLSRLKQKGIKLTVAVDKVAASGGYMMACVADKIVSAPFAVIGSIGVVAQIPNVHRLLKKHDVDVDVMTAGEFKRTVTVLGENTEKGKQKFQQELEETHKLFKQFVSQNRPCLDIDKIATGEHWFGQQAIALQLVDEISTSDDLILEKMKEKQVLNVKYRLKKSLIKKFGRQAEESAINIIHRYSTKQSRDFMYLEHHHHHH”: “failed”.

In the case of “MTIKSDKWIRRMAQEHGMIEPFVERQVRGADDSRVISYGVSSYGYDVRCAAEFKVFTNIHSAVVDPKNFDEKSFVDINSDVCIIPPNSFALARTVEYFRIPRDVLTICLGKSTYARCGIIVNVTPLEPEWEGHVTLEFSNTTNLPAKIYANEGVAQMLFLQSDEACEVSYKDRGGKYQGQR”, the protein production result is reported as “not failed”. As to “MIISFVIQVGLFPDSLERKVIRHIENGDHLTCFLFLNYLHVLIQGFSFGGYRVLYKERELSRICPAIRFQRKSFTEVRMILSHHPSFSLVNDPQEIAQIAEWGEEQIAQYKERVTGEGKQRDIDRGKPMAQASLDEAAFLLNLASLEGTWDESLERVAQCYKEAGLNDIAKFVLYRD”, the protein production entry is “failed”. As to “MLPAYIRIHDQIKKEIDEGLWKIGDRLPSERDLAERFEVSRMTLRQAITLLVEEGILERRVGSGTYIASSRVQEKMRGTTSFTEIVKSQGKTPSTKLISYRRVHPSEQEIKFLDIKPKSYIIRMERVRYADDIPVVFEVTAIPEKIIKSFKKEAITKHFFKTLTDHGFVIGKSQQTISASNANEMTADYLAISRGHAVLTLAQVSYFENGMPFEYVRSQYVGERFEFYLENK”, the protein production entry is reported as “not failed”. With “PNFSHWGPPRIVEIFREPNVSLGISIVGGQTVIKRLKNGEELKGIFIKQVLEDSPAGKTNALKTGDKILEVSGVDLQNASHSEAVEAIKNAGNPVVFIVQSLSSTPRVIP”, the protein production entry is on record as “not failed”.
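Note: failed if final PepcDB status was selected cloned or expressed and not failed if soluble or beyond.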
